Changes are numbered by the printed parent chain. Names may count otherwise. Each block holds one binder with its values, some of them ahead of it.
Assays:
cynoFcγRIIb = target: T1, cynoFcγRIIb (Macaca fascicularis, UniProt A0A140HDP4); experiment: SPR
T1 construct: extracellular region, C-terminal His- and GST-tag; also called cynomolgus monkey FcγRIIb
T1 sequence (receptor extracellular region): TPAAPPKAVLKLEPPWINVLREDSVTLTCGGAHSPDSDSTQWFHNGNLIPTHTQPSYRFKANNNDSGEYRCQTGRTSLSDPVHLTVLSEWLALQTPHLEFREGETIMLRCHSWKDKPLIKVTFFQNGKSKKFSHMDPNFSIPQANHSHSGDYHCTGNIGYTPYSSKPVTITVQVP

cynoFcγRIIIa = target: T2, cynoFcγRIIIa (Macaca fascicularis, UniProt Q8SPW2); experiment: SPR
T2 construct: extracellular region, C-terminal His- and GST-tag; also called cynomolgus monkey FcγRIIIa

mFcγRIV = target: T3, mFcγRIV; experiment: SPR
T3 construct: also called mouse FcγRIV; not shown: C-terminal His and GST tags (named only on our card)
T3 chain: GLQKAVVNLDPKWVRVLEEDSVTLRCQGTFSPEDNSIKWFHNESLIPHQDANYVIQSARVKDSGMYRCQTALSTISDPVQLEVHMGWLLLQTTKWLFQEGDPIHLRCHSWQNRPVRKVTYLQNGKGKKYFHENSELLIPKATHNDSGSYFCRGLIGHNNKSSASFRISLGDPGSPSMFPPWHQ

mFcγRIIb [1] = target: T4, mFcγRIIb (Mus musculus, UniProt P08101); experiment: SPR
T4 construct: extracellular region, C-terminal His- and GST-tag; also called mouse FcγRII
T4 sequence (receptor extracellular region, looked up): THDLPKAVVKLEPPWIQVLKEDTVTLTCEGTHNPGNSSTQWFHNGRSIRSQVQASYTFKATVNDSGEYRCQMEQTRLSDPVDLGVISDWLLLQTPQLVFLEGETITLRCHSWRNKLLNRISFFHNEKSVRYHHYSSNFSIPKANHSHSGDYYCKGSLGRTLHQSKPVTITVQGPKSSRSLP

[2] = target: T5, human FcγRIIa (131H), His- and GST-tagged (human, UniProt P12318 34-217); experiment: SPR
T5 construct: also called H131 FcγRIIa; HIIa; not shown: 6xHis and GST tags of the pTT5 vector
T5 sequence (looked up): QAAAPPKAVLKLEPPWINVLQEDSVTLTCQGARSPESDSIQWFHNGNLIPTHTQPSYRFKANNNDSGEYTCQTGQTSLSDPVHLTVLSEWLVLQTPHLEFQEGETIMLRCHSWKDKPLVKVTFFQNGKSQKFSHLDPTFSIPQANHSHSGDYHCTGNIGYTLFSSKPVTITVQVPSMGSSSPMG

[3] = target: T6, human FcγRIIIa (158V), His- and GST-tagged (human, UniProt P08637 17-208); experiment: SPR
T6 construct: also called V158 FcγRIIIa; VIIIa; not shown: 6xHis and GST tags of the pTT5 vector

[4] = target: T7, human FcγRIIa (131R), His- and GST-tagged (human, UniProt P12318 34-217); experiment: SPR
T7 construct: Expressed in HEK293T cells, purified by nickel chromatography; also called R131 FcγRIIa; not shown: 6xHis and GST tags of the pTT5 vector
T7 sequence (looked up): T5 sequence (looked up) with H134R

[5] = target: T8, human FcγRIIb receptor protein (R&D Systems) (human, UniProt P31994 46-217); experiment: SPR
T8 construct: Bought protein injected over captured antibody in Biacore; also called CD32b
T8 sequence (looked up): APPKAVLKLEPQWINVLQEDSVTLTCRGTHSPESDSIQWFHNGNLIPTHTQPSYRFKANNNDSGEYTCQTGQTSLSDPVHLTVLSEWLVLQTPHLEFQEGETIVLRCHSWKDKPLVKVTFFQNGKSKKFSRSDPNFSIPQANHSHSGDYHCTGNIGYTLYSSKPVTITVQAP

[6] = target: T9, human FcγRI receptor protein (R&D Systems) (human, UniProt P12314 16-288); experiment: SPR
T9 construct: also called soluble FcγRI; solFcγRI

mFcγRIIb [7] = target: T4, mFcγRIIb; experiment: SPR, off-rate
Protocol: Variants were screened for receptor affinity using Biacore™ technology, also referred to as Biacore herein, a surface plasmon resonance (SPR) based technology for studying biomolecular interactions in real time. SPR measurements were performed using a Biacore 3000 instrument (Biacore, Piscataway, N.J.). A protein A/G (Pierce Biotechnology) CM5 biosensor chip (Biacore) was generated using a standard primary amine coupling protocol. All measurements were performed using HBS-EP buffer (10 mM HEPES pH 7.4, 0.15 M NaCl, 3 mM EDTA, 0.005% vol/vol surfactant P20, Biacore). Antibodies at 20 nM or 50 nM in HBS-EP buffer were immobilized on the protein A/G surface and FcγRs were injected. After each cycle, the surface was regenerated by injecting glycine buffer (10 mM, pH 1.5). Data were processed by zeroing time and response before the injection of FcγR and by subtracting appropriate nonspecific signals (response of reference channel and injection of running buffer). Kinetic analyses were performed by global fitting of binding data with a 1:1 Langmuir binding model using BIAevaluation software (Biacore).
Variant antibodies were tested for their affinity to mouse or cynologous monkey FcγRs using Biacore SPR as described above. Specifically, antibodies were first immobilized on a protein A/G chip to high density, and then followed by injections of the extracellular domain of the mouse or cynologous monkey FcγR of interest. Both association and dissociation phases were tracked in real time using the Biacore technology.

T6 sequence (P08637 17-208 F176V): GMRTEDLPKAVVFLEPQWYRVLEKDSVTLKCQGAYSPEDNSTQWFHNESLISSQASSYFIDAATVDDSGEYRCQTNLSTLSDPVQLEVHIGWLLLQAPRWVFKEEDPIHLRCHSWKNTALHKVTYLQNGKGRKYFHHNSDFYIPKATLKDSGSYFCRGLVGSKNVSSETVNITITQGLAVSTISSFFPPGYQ
T2 sequence (Q8SPW2 17-208): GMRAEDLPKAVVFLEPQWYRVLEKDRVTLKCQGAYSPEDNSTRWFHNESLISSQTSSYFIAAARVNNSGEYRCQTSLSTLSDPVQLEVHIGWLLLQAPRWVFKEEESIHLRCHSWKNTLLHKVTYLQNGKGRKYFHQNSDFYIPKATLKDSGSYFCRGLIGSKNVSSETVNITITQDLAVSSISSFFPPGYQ

B2: S298Q (antibody, human IgG1, kappa)
heavy: not shown
light: DIVMTQSPATLSLSPGERATLSCRSSKSLQNVNGNTYLYWFQQKPGQSPQLLIYRMSNLNSGVPDRFSGSGSGTEFTLTISSLEPEDFAVYYCMQHLEYPITFGAGTKLEIKRTVAAPSVFIFPPSDEQLKSGTASVVCLLNNFYPREAKVQWKVDNALQSGNSQESVTEQDSKDSTYSLSSTLTLSKADYEKHKVYACEVTHQGLSSPVTKSFNRGEC
notes: HuAM4G7 anti-CD19 IgG1 (m1) with this Fc substitution, EU index; copies: 2 + 2
Fold vs WT IgG1 (off-rate) (cynoFcγRIIb): 0.714 fold
Fold vs WT IgG1 (off-rate) (cynoFcγRIIIa): 0.271 fold
Fold vs WT IgG1 (off-rate) (mFcγRIV): 0.291 fold
Fold vs WT IgG1 (off-rate) (mFcγRIIb [1]): 1.41 fold
binding result [4]: no binding
binding result [5]: no binding

B4: S239Q (antibody, human IgG1, kappa)
heavy: not shown
light: B2 light
notes: as for B2
Fold vs WT IgG1 (off-rate) (cynoFcγRIIb): 0.401 fold
Fold vs WT IgG1 (off-rate) (cynoFcγRIIIa): 0.622 fold
Fold vs WT IgG1 (off-rate) (mFcγRIV): 0.711 fold
Fold vs WT IgG1 (off-rate) (mFcγRIIb [1]): 1.74 fold
Fold vs WT IgG1 [4]: 0.853 fold
Kd [4]: 1010 nM
Fold vs WT IgG1 [5]: 0.729 fold
Kd [5]: 2010 nM

B7: S267E/L328I (antibody, human IgG1, kappa)
heavy: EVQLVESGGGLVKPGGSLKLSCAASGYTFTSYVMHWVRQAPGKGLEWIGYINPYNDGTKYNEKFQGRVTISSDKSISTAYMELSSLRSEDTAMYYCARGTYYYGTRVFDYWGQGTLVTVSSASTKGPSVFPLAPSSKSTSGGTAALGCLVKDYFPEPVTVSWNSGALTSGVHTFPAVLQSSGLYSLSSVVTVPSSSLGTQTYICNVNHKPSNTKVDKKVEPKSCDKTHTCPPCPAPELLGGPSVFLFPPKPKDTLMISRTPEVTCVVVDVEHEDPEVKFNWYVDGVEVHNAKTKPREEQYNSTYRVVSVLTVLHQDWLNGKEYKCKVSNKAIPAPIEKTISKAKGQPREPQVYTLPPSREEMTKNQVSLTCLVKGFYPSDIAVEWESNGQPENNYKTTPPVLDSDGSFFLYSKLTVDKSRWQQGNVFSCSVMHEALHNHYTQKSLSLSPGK
light: B2 light
notes: HuAM4G7 anti-CD19 IgG1 (m1) with these Fc substitutions, EU index; copies: 2 + 2
Fold vs WT IgG1 (off-rate) (cynoFcγRIIb): 0.831 fold
Fold vs WT IgG1 (off-rate) (cynoFcγRIIIa): 0.437 fold
Fold vs WT IgG1 (off-rate) (mFcγRIV): 0.588 fold
Fold vs WT IgG1 (off-rate) (mFcγRIIb [1]): 2.1 fold
Fold vs WT IgG1 [4]: 74 fold
Kd [4]: 11.6 nM
Fold vs WT IgG1 [5]: 53.4 fold
Kd [5]: 27.5 nM

B8: L235Y (antibody, human IgG1, kappa)
heavy: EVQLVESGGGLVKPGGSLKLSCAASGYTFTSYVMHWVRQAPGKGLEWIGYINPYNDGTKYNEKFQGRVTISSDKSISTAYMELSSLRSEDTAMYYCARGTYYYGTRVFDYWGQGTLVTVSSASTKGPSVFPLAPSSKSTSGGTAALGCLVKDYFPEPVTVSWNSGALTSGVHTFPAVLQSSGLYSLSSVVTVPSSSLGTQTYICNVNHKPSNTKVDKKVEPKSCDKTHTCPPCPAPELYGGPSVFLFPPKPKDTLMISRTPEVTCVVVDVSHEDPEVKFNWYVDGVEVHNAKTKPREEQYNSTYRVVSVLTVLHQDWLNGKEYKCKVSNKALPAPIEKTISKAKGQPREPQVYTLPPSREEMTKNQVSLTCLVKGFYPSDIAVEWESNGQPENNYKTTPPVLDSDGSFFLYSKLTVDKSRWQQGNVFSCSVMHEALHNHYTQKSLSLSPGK
light: B2 light
notes: as for B2
Fold vs WT IgG1 (off-rate) (cynoFcγRIIb): 0.92 fold
Fold vs WT IgG1 (off-rate) (cynoFcγRIIIa): 0.535 fold
Fold vs WT IgG1 (off-rate) (mFcγRIV): 0.507 fold
Fold vs WT IgG1 (off-rate) (mFcγRIIb [1]): 1.02 fold
Fold vs WT IgG1 [2]: 1.35 fold
Kd [2]: 479 nM
Fold vs WT IgG1 [3]: 0.504 fold
Kd [3]: 380 nM
Fold vs WT IgG1 [4]: 1.28 fold
Kd [4]: 669 nM
Fold vs WT IgG1 [5]: 1.05 fold
Kd [5]: 1400 nM
Fold vs WT IgG1 [6]: 0.00232 fold
Kd [6]: 142 nM

B9: H268Q (antibody, human IgG1, kappa)
heavy: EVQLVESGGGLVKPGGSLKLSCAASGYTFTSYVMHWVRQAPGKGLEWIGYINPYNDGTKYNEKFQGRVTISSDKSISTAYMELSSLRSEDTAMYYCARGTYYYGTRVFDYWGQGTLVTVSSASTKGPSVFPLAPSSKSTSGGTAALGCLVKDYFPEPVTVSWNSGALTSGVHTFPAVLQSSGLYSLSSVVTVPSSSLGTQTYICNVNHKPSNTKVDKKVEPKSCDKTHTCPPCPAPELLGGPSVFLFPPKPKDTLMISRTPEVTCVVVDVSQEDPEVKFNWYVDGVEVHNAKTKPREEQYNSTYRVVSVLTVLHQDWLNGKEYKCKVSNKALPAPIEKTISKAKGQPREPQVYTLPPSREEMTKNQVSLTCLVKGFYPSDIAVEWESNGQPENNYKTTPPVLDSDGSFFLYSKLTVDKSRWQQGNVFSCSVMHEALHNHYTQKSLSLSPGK
light: B2 light
notes: as for B2
Fold vs WT IgG1 (off-rate) (cynoFcγRIIb): 0.864 fold
Fold vs WT IgG1 (off-rate) (cynoFcγRIIIa): 0.983 fold
Fold vs WT IgG1 (off-rate) (mFcγRIV): 1.08 fold
Fold vs WT IgG1 (off-rate) (mFcγRIIb [1]): 0.877 fold
Fold vs WT IgG1 [4]: 1.58 fold
Kd [4]: 544 nM
binding result [5]: no binding

Results, then the binder that gave them:

Fold vs WT IgG1 (Kd) (cynoFcγRIIb): 1.16 fold
Fold vs WT IgG1 (off-rate) (cynoFcγRIIb): 1.15 fold
Fold vs WT IgG1 (Kd) (cynoFcγRIIIa): 0.783 fold
Fold vs WT IgG1 (off-rate) (cynoFcγRIIIa): 0.515 fold
Fold vs WT IgG1 (Kd) (mFcγRIV): 0.315 fold
Fold vs WT IgG1 (off-rate) (mFcγRIV): 0.876 fold
Fold vs WT IgG1 (Kd) (mFcγRIIb [1]): 1.86 fold
Fold vs WT IgG1 (off-rate) (mFcγRIIb [1]): 4.1 fold
Fold vs WT IgG1 [2]: 0.733 fold
Kd [2]: 882 nM
Fold vs WT IgG1 [3]: 0.398 fold
Kd [3]: 481 nM
Fold vs WT IgG1 [4]: 1.6 fold
Kd [4]: 536 nM
Fold vs WT IgG1 [5]: 1.33 fold
Kd [5]: 1100 nM
Fold vs WT IgG1 [6]: 2.06 fold
Kd [6]: 0.16 nM
B1: A327D (antibody, human IgG1, kappa)
heavy: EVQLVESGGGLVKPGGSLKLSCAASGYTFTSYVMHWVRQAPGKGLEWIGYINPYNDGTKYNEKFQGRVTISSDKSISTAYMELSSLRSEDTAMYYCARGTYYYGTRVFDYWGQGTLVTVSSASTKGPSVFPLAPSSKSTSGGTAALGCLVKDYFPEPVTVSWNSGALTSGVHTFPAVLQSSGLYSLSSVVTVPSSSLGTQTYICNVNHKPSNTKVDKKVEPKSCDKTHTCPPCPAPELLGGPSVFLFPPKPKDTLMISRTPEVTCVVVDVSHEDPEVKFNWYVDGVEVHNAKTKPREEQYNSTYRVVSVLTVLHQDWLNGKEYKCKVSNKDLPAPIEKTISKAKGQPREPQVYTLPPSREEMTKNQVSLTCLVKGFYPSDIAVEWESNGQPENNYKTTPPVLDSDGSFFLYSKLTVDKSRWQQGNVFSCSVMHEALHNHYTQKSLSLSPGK
light: B2 light
notes: as for B2

Fold vs WT IgG1 (off-rate) (cynoFcγRIIb): 0.936 fold
Fold vs WT IgG1 (off-rate) (cynoFcγRIIIa): 0.561 fold
Fold vs WT IgG1 (off-rate) (mFcγRIV): 0.144 fold
binding result [2]: no binding
binding result [3]: no binding
Fold vs WT IgG1 [4]: 0.228 fold
Kd [4]: 3760 nM
Fold vs WT IgG1 [5]: 0.409 fold
Kd [5]: 3590 nM
Fold vs WT IgG1 [6]: 0.0362 fold
Kd [6]: 9.11 nM
binding result (mFcγRIIb [7]): no binding
B3: L234F (antibody, human IgG1, kappa)
heavy: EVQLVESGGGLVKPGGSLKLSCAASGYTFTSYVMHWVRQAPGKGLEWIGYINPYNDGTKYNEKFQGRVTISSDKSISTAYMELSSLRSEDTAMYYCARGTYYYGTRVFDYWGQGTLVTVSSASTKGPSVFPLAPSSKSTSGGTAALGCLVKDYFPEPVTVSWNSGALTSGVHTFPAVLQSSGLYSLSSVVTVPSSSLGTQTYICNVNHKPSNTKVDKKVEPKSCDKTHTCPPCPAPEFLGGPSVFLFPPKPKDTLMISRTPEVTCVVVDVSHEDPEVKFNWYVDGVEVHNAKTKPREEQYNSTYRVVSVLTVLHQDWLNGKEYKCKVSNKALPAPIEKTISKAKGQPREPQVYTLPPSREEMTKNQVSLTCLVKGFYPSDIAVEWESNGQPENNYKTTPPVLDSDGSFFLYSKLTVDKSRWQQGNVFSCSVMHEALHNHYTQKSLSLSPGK
light: B2 light
notes: as for B2

Fold vs WT IgG1 (off-rate) (cynoFcγRIIb): 0.66 fold
Fold vs WT IgG1 (off-rate) (cynoFcγRIIIa): 1.15 fold
Fold vs WT IgG1 (off-rate) (mFcγRIV): 1.07 fold
Fold vs WT IgG1 (off-rate) (mFcγRIIb [1]): 0.61 fold
Fold vs WT IgG1 [4]: 0.867 fold
Kd [4]: 990 nM
Fold vs WT IgG1 [5]: 1.45 fold
Kd [5]: 1010 nM
B5: S239N (antibody, human IgG1, kappa)
heavy: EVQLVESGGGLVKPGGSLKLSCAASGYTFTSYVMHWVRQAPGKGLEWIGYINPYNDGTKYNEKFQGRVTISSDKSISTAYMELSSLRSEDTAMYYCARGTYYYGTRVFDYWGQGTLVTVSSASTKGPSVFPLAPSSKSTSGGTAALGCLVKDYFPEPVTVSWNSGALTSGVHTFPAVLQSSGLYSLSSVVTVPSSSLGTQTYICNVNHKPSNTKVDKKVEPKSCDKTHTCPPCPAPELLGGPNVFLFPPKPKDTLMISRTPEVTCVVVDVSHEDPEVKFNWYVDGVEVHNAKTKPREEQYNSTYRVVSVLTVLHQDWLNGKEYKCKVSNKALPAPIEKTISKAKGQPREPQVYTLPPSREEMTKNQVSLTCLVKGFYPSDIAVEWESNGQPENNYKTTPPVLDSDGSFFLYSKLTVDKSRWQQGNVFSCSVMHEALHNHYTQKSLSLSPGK
light: B2 light
notes: as for B2

Fold vs WT IgG1 (Kd) (cynoFcγRIIb): 1.48 fold
Fold vs WT IgG1 (off-rate) (cynoFcγRIIb): 3.94 fold
Fold vs WT IgG1 (Kd) (cynoFcγRIIIa): 4.24 fold
Fold vs WT IgG1 (off-rate) (cynoFcγRIIIa): 1.65 fold
Fold vs WT IgG1 (Kd) (mFcγRIV): 0.47 fold
Fold vs WT IgG1 (off-rate) (mFcγRIV): 1.45 fold
Fold vs WT IgG1 (Kd) (mFcγRIIb [1]): 1.11 fold
Fold vs WT IgG1 (off-rate) (mFcγRIIb [1]): 2.63 fold
Fold vs WT IgG1 [2]: 1.89 fold
Kd [2]: 342 nM
Fold vs WT IgG1 [3]: 3.08 fold
Kd [3]: 62.2 nM
Fold vs WT IgG1 [4]: 4.19 fold
Kd [4]: 205 nM
Fold vs WT IgG1 [5]: 3.06 fold
Kd [5]: 480 nM
Fold vs WT IgG1 [6]: 2.35 fold
Kd [6]: 0.14 nM
B6: H268D (antibody, human IgG1, kappa)
heavy: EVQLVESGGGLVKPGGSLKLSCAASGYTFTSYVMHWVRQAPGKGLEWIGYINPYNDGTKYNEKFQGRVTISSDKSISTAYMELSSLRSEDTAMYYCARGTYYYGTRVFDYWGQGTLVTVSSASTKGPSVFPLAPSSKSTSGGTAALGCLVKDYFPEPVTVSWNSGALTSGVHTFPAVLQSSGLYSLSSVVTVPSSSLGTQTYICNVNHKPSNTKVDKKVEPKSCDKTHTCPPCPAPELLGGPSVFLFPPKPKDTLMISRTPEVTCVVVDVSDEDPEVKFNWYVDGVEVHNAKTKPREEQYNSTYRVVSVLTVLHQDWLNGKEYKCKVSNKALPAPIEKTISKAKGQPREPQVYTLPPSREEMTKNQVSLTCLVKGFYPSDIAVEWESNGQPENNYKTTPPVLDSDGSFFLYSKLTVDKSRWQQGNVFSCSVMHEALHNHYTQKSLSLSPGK
light: B2 light
notes: as for B2

Fold vs WT IgG1 (off-rate) (cynoFcγRIIb): 0.826 fold
Fold vs WT IgG1 (off-rate) (cynoFcγRIIIa): 0.979 fold
Fold vs WT IgG1 (off-rate) (mFcγRIV): 1.19 fold
Fold vs WT IgG1 (off-rate) (mFcγRIIb [1]): 1.42 fold
binding result [4]: no binding
binding result [5]: no binding
B10: V266I (antibody, human IgG1, kappa)
heavy: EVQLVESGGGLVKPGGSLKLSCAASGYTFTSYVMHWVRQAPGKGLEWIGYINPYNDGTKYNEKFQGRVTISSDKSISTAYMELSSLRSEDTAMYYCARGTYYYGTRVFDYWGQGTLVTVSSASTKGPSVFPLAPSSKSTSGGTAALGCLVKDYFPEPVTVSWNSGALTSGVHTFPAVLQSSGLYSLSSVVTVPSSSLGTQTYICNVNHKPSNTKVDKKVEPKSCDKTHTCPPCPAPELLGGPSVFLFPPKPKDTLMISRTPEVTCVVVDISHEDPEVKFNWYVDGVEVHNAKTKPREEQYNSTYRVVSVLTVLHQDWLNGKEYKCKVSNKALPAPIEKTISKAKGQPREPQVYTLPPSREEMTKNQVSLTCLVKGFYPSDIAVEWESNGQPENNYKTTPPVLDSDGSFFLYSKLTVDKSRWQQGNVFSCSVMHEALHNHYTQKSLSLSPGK
light: B2 light
notes: as for B2

Fold vs WT IgG1 (off-rate) (cynoFcγRIIb): 1.25 fold
Fold vs WT IgG1 (off-rate) (cynoFcγRIIIa): 2.26 fold
Fold vs WT IgG1 (off-rate) (mFcγRIV): 1.93 fold
Fold vs WT IgG1 (off-rate) (mFcγRIIb [1]): 3.1 fold
Fold vs WT IgG1 [2]: 0.49 fold
Kd [2]: 1320 nM
Fold vs WT IgG1 [3]: 3.49 fold
Kd [3]: 54.8 nM
Fold vs WT IgG1 [4]: 0.688 fold
Kd [4]: 1250 nM
Fold vs WT IgG1 [5]: 0.803 fold
Kd [5]: 1830 nM
Fold vs WT IgG1 [6]: 1.65 fold
Kd [6]: 0.2 nM
B11: S239E (antibody, human IgG1, kappa)
heavy: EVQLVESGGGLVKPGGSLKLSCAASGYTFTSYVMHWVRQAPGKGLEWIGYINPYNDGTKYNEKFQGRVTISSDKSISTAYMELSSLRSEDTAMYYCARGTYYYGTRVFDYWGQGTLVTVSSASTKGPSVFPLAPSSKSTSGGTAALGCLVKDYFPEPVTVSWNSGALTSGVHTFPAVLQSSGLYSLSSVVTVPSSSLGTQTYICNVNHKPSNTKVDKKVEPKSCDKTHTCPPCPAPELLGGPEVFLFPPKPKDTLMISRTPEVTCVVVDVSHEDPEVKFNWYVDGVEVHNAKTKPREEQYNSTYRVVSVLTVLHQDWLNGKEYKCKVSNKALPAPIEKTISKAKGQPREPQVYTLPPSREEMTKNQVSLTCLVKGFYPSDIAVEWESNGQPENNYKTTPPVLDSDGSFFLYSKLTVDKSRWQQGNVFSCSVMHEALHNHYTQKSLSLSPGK
light: B2 light
notes: as for B2

Fold vs WT IgG1 (off-rate) (cynoFcγRIIb): 2.23 fold
Fold vs WT IgG1 (off-rate) (cynoFcγRIIIa): 1.51 fold
Fold vs WT IgG1 (off-rate) (mFcγRIV): 1.42 fold
Fold vs WT IgG1 (off-rate) (mFcγRIIb [1]): 2.44 fold
Fold vs WT IgG1 [2]: 1.43 fold
Kd [2]: 453 nM
Fold vs WT IgG1 [3]: 2.19 fold
Kd [3]: 87.5 nM
Fold vs WT IgG1 [4]: 3.19 fold
Kd [4]: 269 nM
Fold vs WT IgG1 [5]: 2.62 fold
Kd [5]: 560 nM
Fold vs WT IgG1 [6]: 2.74 fold
Kd [6]: 0.12 nM
B12: H268E (antibody, human IgG1, kappa)
heavy: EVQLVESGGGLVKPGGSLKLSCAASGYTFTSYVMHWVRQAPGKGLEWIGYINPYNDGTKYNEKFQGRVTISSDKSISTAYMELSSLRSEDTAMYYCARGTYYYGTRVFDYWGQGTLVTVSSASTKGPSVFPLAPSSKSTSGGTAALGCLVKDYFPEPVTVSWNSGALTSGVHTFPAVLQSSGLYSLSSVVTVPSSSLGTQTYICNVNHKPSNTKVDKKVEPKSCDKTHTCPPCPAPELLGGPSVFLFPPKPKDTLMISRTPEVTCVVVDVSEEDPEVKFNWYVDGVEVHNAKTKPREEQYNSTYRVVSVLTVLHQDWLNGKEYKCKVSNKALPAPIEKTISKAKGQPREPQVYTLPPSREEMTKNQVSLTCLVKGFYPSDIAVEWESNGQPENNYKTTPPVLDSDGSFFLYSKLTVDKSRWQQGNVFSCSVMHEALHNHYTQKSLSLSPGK
light: B2 light
notes: as for B2
